Results as given in patent publication US20210363249A1 (INNATE PHARMA, published 2021).

B1: mAbD (antibody, V domains shown)
VH: QIQLVQSGPELKKPGETVKISCKASGYTFTDYSMHWVKQAPGKGLKWMGWIITETGEPTYADDFRGRFAFSLETSANTAYLQINNLKNEDTATYFCARDFDGYWGQGTTLTVSS
VL: DILMTQSPASLSASVGETVTITCRASENIYSYLAWYQQKRGKSPQFLVYNAKTLTEGVPSRFRGSGSGTQFSLKINSLQPEDFGTYYCQHHYGFPWTFGGGTKLEIK
notes: Anti-Siglec-9
B2: mAbA (antibody, V domains shown)
VH: QVQLQQPGAELVKPGSPVKLSCKASYFTFTSYWMHWVRQRPGQGLEWIGEINPSNGHTNYNEKFESKATLTVDRSSSTAYMQLSSLTSEDSAVFYCANGVESYDFDDALDYWGQGTSVTVSS
VL: DIQMTQTTSSLSASLGDRVTISCRASQDINNYLNWYQQKPDGTIKLLIYYTSRLHSGVPSRFSGSGSGTDYSLTINNLEQEDIATYFCQQGNTLPFTFGGGTKLEIK
notes: Anti-Siglec-9
B3: mAbC (antibody, V domains shown)
VH: QIQLVQSGPELKKPGETVKISCKASGYTFTNYEMNWVKEAPGKGLKWMGWINTYTGESTYADDFKGRFAFSLETSASTVYLQINNLKDEDVATYFCVRDDYGRSYGFAYWGQGTLVTVSA
VL: NIVLTQSPASLTVSLGQRANISCRASESVDSYGNSFMHWYQQKPGQPPKLLIYLASKLESGVPARFSGSGSRTDFTLTIDPVETDDAATYYCHQNNEDPPWTFGGGTKLEIK
notes: Anti-Siglec-9

Experiments:
[1] = target: T1, Human Siglec-9 (human, UniProt Q9Y336 18-463); assay: flow cytometry on fresh purified human NK cells gated CD3-/CD56+, isotype control staining
T1 construct: Expressed on transfected CHO cells and YTS cells; also called huSiglec-9; CD329
T1 sequence (Q9Y336 18-463): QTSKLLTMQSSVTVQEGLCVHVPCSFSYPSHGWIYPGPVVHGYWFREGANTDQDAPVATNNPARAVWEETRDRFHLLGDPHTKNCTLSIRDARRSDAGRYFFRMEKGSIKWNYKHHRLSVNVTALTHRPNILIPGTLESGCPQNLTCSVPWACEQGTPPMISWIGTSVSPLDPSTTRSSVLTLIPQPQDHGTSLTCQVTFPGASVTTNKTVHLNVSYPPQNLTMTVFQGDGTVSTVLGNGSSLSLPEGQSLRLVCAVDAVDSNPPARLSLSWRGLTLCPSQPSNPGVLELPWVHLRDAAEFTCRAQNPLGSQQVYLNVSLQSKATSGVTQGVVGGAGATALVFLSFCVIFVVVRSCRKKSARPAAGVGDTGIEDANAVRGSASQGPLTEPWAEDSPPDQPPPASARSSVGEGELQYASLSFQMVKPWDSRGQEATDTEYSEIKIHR

[2] = target: Human Siglec-7 (human) (UniProt Q9Y286); assay: as above
Chain of Human Siglec-7 (human) (Q9Y286 19-467): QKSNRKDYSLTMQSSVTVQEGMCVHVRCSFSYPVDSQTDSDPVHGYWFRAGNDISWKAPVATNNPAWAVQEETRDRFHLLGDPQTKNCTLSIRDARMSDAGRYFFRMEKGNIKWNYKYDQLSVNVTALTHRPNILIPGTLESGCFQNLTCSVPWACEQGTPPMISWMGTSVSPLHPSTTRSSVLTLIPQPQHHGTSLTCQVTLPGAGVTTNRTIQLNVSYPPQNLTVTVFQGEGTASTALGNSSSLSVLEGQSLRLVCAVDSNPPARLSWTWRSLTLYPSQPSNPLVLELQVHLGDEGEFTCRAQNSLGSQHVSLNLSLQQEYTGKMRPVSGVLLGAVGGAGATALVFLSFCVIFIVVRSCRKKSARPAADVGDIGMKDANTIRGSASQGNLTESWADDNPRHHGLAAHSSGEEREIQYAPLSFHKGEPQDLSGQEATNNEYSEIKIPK

[3] = target: T1, Human Siglec-9; assay: flow cytometry titration on moDC against neuraminidase-treated moDC
Method: (§1) moDC were desialylated for 2 hours with 25 mU neuraminidase (Roche Diagnostics).
(§2) Binding on moDCs and neuraminidase treated moDCs was tested in a titration experiment by flow cytometry. Cells were incubated 1 h in Staining Buffer (SB) with primary antibodies at 10 ug/ml and a series of dilution of 1:10. They were washed two times with SB, then incubated 30 min with a Goat F(ab′)² Anti-Human IgG (Fc) PE (Jackson lmmunoresearch), and washed twice with SB.

[4] = target: T1, Human Siglec-9; assay: flow cytometry titration on neuraminidase-treated (desialylated) moDCs; goat F(ab')2 anti-human IgG (Fc) PE
Method: as §1, §2

Molecule	fold enhancement of EC50 after neuraminidase treatment of moDC [3]	EC50 (read off the curve) [4]	other results
Isotype control - PE (antibody)	–	–	percent of NK cells in quadrant Q2 (isotype APC positive, isotype PE positive) [1]: 0.34; percent of NK cells in quadrant Q3 (isotype APC negative, isotype PE positive) [1]: 2.54
Isotype control - APC (antibody)	–	–	percent of NK cells in quadrant Q1 (isotype APC positive, isotype PE negative) [2]: 0.975; percent of NK cells in quadrant Q2 (isotype APC positive, isotype PE positive) [2]: 0.34
B1	10 fold	~0.09 µg/mL	–
B2	10 fold	~0.03 µg/mL	–
B3	10 fold	~0.03 µg/mL	–
